This assay deals with T1, HLA-B*44:05 (human).
T1 construct: also called peptide-receptive MHC class I molecule
As to the kind of experiment: UV peptide exchange, anti-b2m ELISA. In a few lines:
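Peptide-receptive HLA-B*44:05 monomers after UV-induced exchange were diluted 100-fold and captured on streptavidin-coated plates for 1 h at 37 °C. Bound complexes were detected with 2 µg/ml HRP-anti-β2m (1 h, 37 °C) and TMB, read at 450 nm. β2m signal reflects peptide-stabilized complex yield.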

Regarding EDNPSGHTY, the peptide exchange yield lay in the range of 20 to 50%.
Under NEVDGEYRY stands 50 to 75%.
Next, AELDSKILAL: 50 to 75%; QEISAHRTEF: 50 to 75%; SESALQTVI: 50 to 75%.
Next, MEFQNTQSY: 50 to 75%; RETEDYSKQAL: 20 to 50%; FETEQALRL: 50 to 75%.
On to TEVHSSPAQRW, for which the peptide exchange yield was in the range of 50 to 75%.
Under EESFRCLPEW stands > 75%.
Under EESFDSKFY stands 50 to 75%; under AENIKKFLY, 50 to 75%; under AEALGAAKKL, 20 to 50%.
Next, TEFHMQFSY: > 75%.
On to SESPIRISV, for which the peptide exchange yield lay within 50 to 75%.
In turn, SEYVHSSFSGF showed a peptide exchange yield of 50 to 75%.
Next, EEHVYESIIRW: 50 to 75%; ALSPVPSHW: 50 to 75%.
Under AEADLSYTWDF stands 50 to 75%; under ALEEGGGYIF, 10 to 20%; under KEDNPSGHTY, 50 to 75%.
Next, GETVVLKNM: 50 to 75%; AEEGPSVPKIY: 50 to 75%; EEINELNRMI: 50 to 75%.
TEDYSKQAL: the peptide exchange yield lay in the range of 50 to 75%.
Next, EEAQWVRKYF: 50 to 75%; VEVGDRTDW: 50 to 75%; EEAGFPLAY: 50 to 75%.
Under DELMRKESQW stands 50 to 75%; under SEENTGKTYF, 50 to 75%; under SEFGAPRW, 50 to 75%.
Next, REYEDGPLSL: 50 to 75%; SESSSAFQF: 50 to 75%; AEMLGSVVGNW: 50 to 75%.
Regarding RELEEEFYSL, the peptide exchange yield was 50 to 75%.
Under SESKVFQLL stands 50 to 75%; under GEPRKLLTQDW, 50 to 75%.
In turn, KEVDPASNTY yielded a peptide exchange yield of 50 to 75%.
Take QESVHVASY: the peptide exchange yield is > 75%.
In the case of AELVGPVIPQDW, the peptide exchange yield lay in the range of 50 to 75%.
In turn, EEYAGQITL registered a peptide exchange yield of 50 to 75%.
Next, QEVAQVASAIL: > 75%.
Regarding KEFGLDSVEL, the peptide exchange yield lay in the range of 50 to 75%.
Next, YEHAFNSIVW: > 75%; TELEPGLTY: 50 to 75%.
Consider KEAINLLKNY, for which the peptide exchange yield is 50 to 75%.
Under RENDFEPKF stands 50 to 75%; under SELSLLSLY, 50 to 75%.
Next, MEVDPIGHVY: 50 to 75%; QEAKPRATW: 50 to 75%.
For RELARVVTL, the peptide exchange yield was > 75%.
Under REIENGNSF stands 50 to 75%; under HEDPSGSLHL, 50 to 75%.
Next, SEYVHSSF: 20 to 50%; QELLDFTNW: > 75%.
Next, TEENGFWYL: > 75%.
AEEKAAVTSL had a peptide exchange yield of 50 to 75%.
Under AESLFREAL stands 50 to 75%.
As to QESVHVASYYW, the peptide exchange yield was > 75%.
Next, QEVAQVASA: 20 to 50%; SELGLPKEV: 20 to 50%.
Under AEGYLDLDGI stands 20 to 50%.
Consider AERDLNVTI, for which the peptide exchange yield lay within 50 to 75%.
Next, AEREQVIKL: > 75%.
Under VEMTGKHQL stands 20 to 50%.
The molecule QEVGEITNL displayed a peptide exchange yield of 50 to 75%.
The molecule AEQQQQQMY returned a peptide exchange yield of 50 to 75%.

For the origin of these results see US20200087363A1 (IMMATICS BIOTECHNOLOGIES, published 2020).
